In US20250368975, “COMPOSITIONS, METHODS AND SYSTEMS FOR HIGH-FIDELITY CAS13A VARIANTS WITH IMPROVED SPECIFICITY” (University of Rochester, published 2025) one finds activity data, which are given here for 1 molecule.

The target in this series is T1, LbuCas13a R377A (Leptotrichia buccalis, UniProt C7NBY4 SEQ:1-1159).
T1 chain: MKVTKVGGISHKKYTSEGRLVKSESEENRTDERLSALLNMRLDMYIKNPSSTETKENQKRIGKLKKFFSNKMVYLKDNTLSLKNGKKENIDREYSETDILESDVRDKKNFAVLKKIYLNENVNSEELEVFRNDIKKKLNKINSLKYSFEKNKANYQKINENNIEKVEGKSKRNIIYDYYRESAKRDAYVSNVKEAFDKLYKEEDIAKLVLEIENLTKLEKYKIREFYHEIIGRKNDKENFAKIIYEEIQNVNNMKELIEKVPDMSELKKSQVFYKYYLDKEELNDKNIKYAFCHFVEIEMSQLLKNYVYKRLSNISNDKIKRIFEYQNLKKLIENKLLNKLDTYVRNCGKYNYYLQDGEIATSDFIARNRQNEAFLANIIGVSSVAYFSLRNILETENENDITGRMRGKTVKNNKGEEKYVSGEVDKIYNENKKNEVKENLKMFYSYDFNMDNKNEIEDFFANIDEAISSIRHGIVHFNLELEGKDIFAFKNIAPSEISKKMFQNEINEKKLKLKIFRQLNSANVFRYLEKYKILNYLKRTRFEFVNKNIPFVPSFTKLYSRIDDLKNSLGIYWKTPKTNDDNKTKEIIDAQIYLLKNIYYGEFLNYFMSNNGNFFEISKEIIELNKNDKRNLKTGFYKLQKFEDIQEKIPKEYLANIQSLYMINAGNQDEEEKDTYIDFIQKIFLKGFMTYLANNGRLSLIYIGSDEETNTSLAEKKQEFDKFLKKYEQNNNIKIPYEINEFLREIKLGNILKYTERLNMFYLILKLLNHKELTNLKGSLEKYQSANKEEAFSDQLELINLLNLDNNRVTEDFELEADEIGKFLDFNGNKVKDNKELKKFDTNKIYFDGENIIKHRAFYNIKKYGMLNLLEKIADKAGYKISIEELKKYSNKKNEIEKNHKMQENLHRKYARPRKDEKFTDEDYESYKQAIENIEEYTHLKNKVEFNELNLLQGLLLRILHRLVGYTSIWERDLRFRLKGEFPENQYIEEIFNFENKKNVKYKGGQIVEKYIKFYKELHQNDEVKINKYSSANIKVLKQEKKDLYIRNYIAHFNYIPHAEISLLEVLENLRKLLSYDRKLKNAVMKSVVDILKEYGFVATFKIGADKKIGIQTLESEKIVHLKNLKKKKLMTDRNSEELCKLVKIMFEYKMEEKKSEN
In words: cleavage_in_vitro; 10 nM; decreased about 50% vs WT; inactive at 100 pM. The settings on record: tags: His6-MBP-TEV (cleaved); hairpin in direct repeat.

B1: del crRNA 20 nt spacer ; perfect match target RNA (ssRNA ; ssRNA)
RNA 1: GGCCACCCCAAAAAUGAAGGGGACUAAAACACAAAUCUAUCUGAAUAAAC
RNA 2: GGGAAACCAAGAAGAAGAGUUUAUUCAGAUAGAUUUGUCACAGCAGAAGCCCACAC
As to B1, the activity was ~50 % of WT.
